Reference: PMC4389316, “C-terminal residues of skeletal muscle calsequestrin are essential for calcium binding and for skeletal ryanodine receptor inhibition” (Skeletal Muscle, 2015)

B1: wild-type (WT) calsequestrin type 1 (CSQ1), rabbit [rabbit] / skeletal triadin 95 kDa (trisk95) [rabbit (endogenous in skeletal muscle SR vesicles)] (parent)
chain 1: EEGLDFPEYDGVDRVINVNAKNYKNVFKKYEVLALLYHEPPEDDKASQRQFEMEELILELAAQVLEDKGVGFGLVDSEKDAAVAKKLGLTEEDSIYVFKEDEVIEYDGEFSADTLVEFLLDVLEDPVELIEGERELQAFENIEDEIKLIGYFKNKDSEHYKAFKEAAEEFHPYIPFFATFDSKVAKKLTLKLNEIDFYEAFMEEPVTIPDKPNSEEEIVNFVEEHRRSTLRKLKPESMYETWEDDMDGIHIVAFAEEADPDGYEFLEILKSVAQDNTDNPDLSIIWIDPDDFPLLVPYWEKTFDIDLSAPQIGVVNVTDADSVWMEMDDEEDLPSAEELEDWLEDVLEGEINTEDDDDEDDDDDDDD
chain 2: MTEITAEGNASTTTTVIDSKNGSVPKSPGKVLKRTVTEDLVTTFSSPAAWLLVIALIITWSAVAVVMFDLVDYKNFSASSIAKMGSDPLKLVHDAVEETTDWIYGFFSLLSDIISSDGDEEDDEGDEDTAKGEIEEPPLKRKDIHKEKIEKQEKPERKIPTKVVHKEKEKEKEKVKEKEKPEKKATHKEKLEKKEKPETKTVTKEEKKARTKEKIEEKTKKEVKGVKQEKVKQTVAKAKEVQKTPKPKEKESKETAAVSKQEQKDQYAFCRYMIDIFVHGDLKPGQSPAIPPPSPTEQASRPTPALPTPEEKEGEKKKAEKKVTTETKKKAEKEDAKKKSEKETDIDMKKKEPGKSPDTKPGTVKVTTQAATKKDEKKEDSKKAKKPAEEQPKGKKQEKKEKHEEPAKSTKKEHAAPSEKQAKAKIERKEEVSAASTKKAVPAKKEEKTTKTVEQETRKEKPGKISSVLKDKELTKEKEVKVPASLKEKGSETKKDEKTSKPEPQIKKEEKPGKEVKPKPPQPQIKKEEKPEQDIMKPEKTALHGKPEEKVLKQVKAVTTEKHVKPKPAKKAEHQEKEPPSIKTDKPKSTSKGMPEVTESGKKKIEKSEKEIKVPARRESHQLQNVTKAEKPARGSKEGFEDVPASKKAKEEAEEVSSTKKQKSPISFFQCVYLDGYNGYGFQFPVTPAQYPGESSGKPNSPGPKQ

Variants of: B1
Assay: co-immunoprecipitation (CSQ1 IP, Western blot densitometry)
Settings: with skeletal triadin 95 kDa (trisk95) [rabbit (endogenous in skeletal muscle SR vesicles)]; 1 mM Ca2+; parent: 100; read off a plot

Variant | percent of parent (% relative binding)
chain 1 EEGLDFPEYDGVDRVINVNAKNYKNVFKKYEVLALLYHEPPEDDKASQRQFEMEELILELAAQVLEDKGVGFGLVDSEKDAAVAKKLGLTEEDSIYVFKEDEVIEYDGEFSADTLVEFLLDVLEDPVELIEGERELQAFENIEDEIKLIGYFKNKDSEHYKAFKEAAEEFHPYIPFFATFDSKVAKKLTLKLNEIDFYEAFMEEPVTIPDKPNSEEEIVNFVEEHRRSTLRKLKPESMYETWEDDMDGIHIVAFAEEADPDGYEFLEILKSVAQDNTDNPDLSIIWIDPDDFPLLVPYWEKTFDIDLSAPQIGVVNVTDADSVWMEMDDEEDLPSAEELEDWLEDVLEGEINTEDDDDEDDDADADA [chain 1 D363A D365A D367A] | 84
chain 1 EEGLDFPEYDGVDRVINVNAKNYKNVFKKYEVLALLYHEPPEDDKASQRQFEMEELILELAAQVLEDKGVGFGLVDSEKDAAVAKKLGLTEEDSIYVFKEDEVIEYDGEFSADTLVEFLLDVLEDPVELIEGERELQAFENIEDEIKLIGYFKNKDSEHYKAFKEAAEEFHPYIPFFATFDSKVAKKLTLKLNEIDFYEAFMEEPVTIPDKPNSEEEIVNFVEEHRRSTLRKLKPESMYETWEDDMDGIHIVAFAEEADPDGYEFLEILKSVAQDNTDNPDLSIIWIDPDDFPLLVPYWEKTFDIDLSAPQIGVVNVTDADSVWMEMDDEEDLPSAEELEDWLEDVLEGEINTEDDDDEDDDDDADA [chain 1 D365A D367A] | 110
chain 1 EEGLDFPEYDGVDRVINVNAKNYKNVFKKYEVLALLYHEPPEDDKASQRQFEMEELILELAAQVLEDKGVGFGLVDSEKDAAVAKKLGLTEEDSIYVFKEDEVIEYDGEFSADTLVEFLLDVLEDPVELIEGERELQAFENIEDEIKLIGYFKNKDSEHYKAFKEAAEEFHPYIPFFATFDSKVAKKLTLKLNEIDFYEAFMEEPVTIPDKPNSEEEIVNFVEEHRRSTLRKLKPESMYETWEDDMDGIHIVAFAEEADPDGYEFLEILKSVAQDNTDNPDLSIIWIDPDDFPLLVPYWEKTFDIDLSAPQIGVVNVTDADSVWMEMDDEEDLPSAEELEDWLEDVLEGEINTEDDDDEDDDDDDDA [chain 1 D367A] | 86
